The source of these data is paper PMC6555819, “Comprehensive study of nuclear receptor DNA binding provides a revised framework for understanding receptor specificity”.

Sequences and labels used below:
B1: NRC3_random_hg19_188_o1 (dsDNA)
DNA 1: GCGCTAGGATTACAGGCACAAGCCACCGTGCCCAGCGCGATTGACAGCGTAGAATGAAGG
DNA 2: CCTTCATTCTACGCTGTCAATCGCGCTGGGCACGGTGGCTTGTGCCTGTAATCCTAGCGC
B2: NRC3_random_hg19_172_o1 (dsDNA)
DNA 1: GCCAGTACTGTTGCTAGAACTACAACCTGTATGCTGGCGATTGACAGCGTAGAATGAAGG
DNA 2: CCTTCATTCTACGCTGTCAATCGCCAGCATACAGGTTGTAGTTCTAGCAACAGTACTGGC
B3: NRC3_random_hg19_200_o1 (dsDNA)
DNA 1: GCGCAGGAGAATCAGGCAGGGAGGTTGCAGTGAGCCGCGATTGACAGCGTAGAATGAAGG
DNA 2: CCTTCATTCTACGCTGTCAATCGCGGCTCACTGCAACCTCCCTGCCTGATTCTCCTGCGC
B4: NRC3_random_hg19_326_o1 (dsDNA)
DNA 1: GCATCAGGTCTGCACCTGCAGATGGCGAGGGTTGGCGCGATTGACAGCGTAGAATGAAGG
DNA 2: CCTTCATTCTACGCTGTCAATCGCGCCAACCCTCGCCATCTGCAGGTGCAGACCTGATGC
B5: NRC3_random_hg19_483_o1 (dsDNA)
DNA 1: GCGAATGGAATAGAGTGGAATGCAGTGGAATGGAAAGCGATTGACAGCGTAGAATGAAGG
DNA 2: CCTTCATTCTACGCTGTCAATCGCTTTCCATTCCACTGCATTCCACTCTATTCCATTCGC
B6: NRC3_random_hg19_473_o1 (dsDNA)
DNA 1: GCGCTACTCGGGAGGCTGAGGCAGGAGAATGGTGTGGCGATTGACAGCGTAGAATGAAGG
DNA 2: CCTTCATTCTACGCTGTCAATCGCCACACCATTCTCCTGCCTCAGCCTCCCGAGTAGCGC
B7: NRC3_random_hg19_330_o1 (dsDNA)
DNA 1: GCAGACTTTGCATCCTGCTGAGAACTGCTCTGAGAGGCGATTGACAGCGTAGAATGAAGG
DNA 2: CCTTCATTCTACGCTGTCAATCGCCTCTCAGAGCAGTTCTCAGCAGGATGCAAAGTCTGC
B8: NRC3_random_hg19_99_o1 (dsDNA)
DNA 1: GCTGTTCTTACTGAGGCGTTTGCTGCCTAGCTCCCTGCGATTGACAGCGTAGAATGAAGG
DNA 2: CCTTCATTCTACGCTGTCAATCGCAGGGAGCTAGGCAGCAAACGCCTCAGTAAGAACAGC
B9: NRC3_wobSeed51_DR2_A12T_o1 (dsDNA)
DNA 1: GCCCTCGGAGGTCAGAAGGTCAGAGCTGTCCGCTTTGCGATTGACAGCGTAGAATGAAGG
DNA 2: CCTTCATTCTACGCTGTCAATCGCAAAGCGGACAGCTCTGACCTTCTGACCTCCGAGGGC
B10: NRC3_wobSeed109_DR4_A16G_o1 (dsDNA)
DNA 1: GCCGTCCAAGGTCATGGGAGGTCAGTGAAGACAGATGCGATTGACAGCGTAGAATGAAGG
DNA 2: CCTTCATTCTACGCTGTCAATCGCATCTGTCTTCACTGACCTCCCATGACCTTGGACGGC
B11: NRC3_wobSeed134_DR5_T20A_o1 (dsDNA)
DNA 1: GCGCTGCTAGGTCAACTGAAGGTCAGCTAAAGCTCGGCGATTGACAGCGTAGAATGAAGG
DNA 2: CCTTCATTCTACGCTGTCAATCGCCGAGCTTTAGCTGACCTTCAGTTGACCTAGCAGCGC
B12: NRC3_wobSeed134_DR5_T20G_o1 (dsDNA)
DNA 1: B11 DNA 1 with A20G
DNA 2: B11 DNA 2 with T41C
B13: NRC3_wobSeed134_DR5_C24G_o1 (dsDNA)
DNA 1: B11 DNA 1 with A20T, C24G
DNA 2: B11 DNA 2 with G37C, T41A
B14: NRC3_wobSeed121_DR5_A6C_o1 (dsDNA)
DNA 1: GCCAACCTAGGTCACCGGAAGGTCAAAGTCCGCATGGCGATTGACAGCGTAGAATGAAGG
DNA 2: CCTTCATTCTACGCTGTCAATCGCCATGCGGACTTTGACCTTCCGGTGACCTAGGTTGGC
B15: NRC3_wobSeed49_DR2_G25C_o1 (dsDNA)
DNA 1: GCCAAACTAGGTCAAGAGGTCAAACTCCGCTTCCCGGCGATTGACAGCGTAGAATGAAGG
DNA 2: CCTTCATTCTACGCTGTCAATCGCCGGGAAGCGGAGTTTGACCTCTTGACCTAGTTTGGC
B16: NRC3_wobSeed122_DR5_T9G_o1 (dsDNA)
DNA 1: GCGCTAGTGGGTCAGTAAAAGGTCACACACCGGTCGGCGATTGACAGCGTAGAATGAAGG
DNA 2: CCTTCATTCTACGCTGTCAATCGCCGACCGGTGTGTGACCTTTTACTGACCCACTAGCGC
B17: NRC3_wobSeed63_DR2_G25T_o1 (dsDNA)
DNA 1: GCCGAACTAGGTCACCAGGACAGTTAAGAGGTTGGAGCGATTGACAGCGTAGAATGAAGG
DNA 2: CCTTCATTCTACGCTGTCAATCGCTCCAACCTCTTAACTGTCCTGGTGACCTAGTTCGGC
B18: NRC3_wobSeed138_DR5_G15A_o1 (dsDNA)
DNA 1: GCGATACAGGGTCAACTAGAGGCCAGAGTATGGAAAGCGATTGACAGCGTAGAATGAAGG
DNA 2: CCTTCATTCTACGCTGTCAATCGCTTTCCATACTCTGGCCTCTAGTTGACCCTGTATCGC
B19: NRC3_wobSeed138_DR5_C23G_o1 (dsDNA)
DNA 1: B18 DNA 1 with A15G, C23G
DNA 2: B18 DNA 2 with G38C, T46C
B20: NRC3_wobSeed125_DR5_T24C_o1 (dsDNA)
DNA 1: GCCCTTACGGGTCACTGACAGGTCATAGCATTTGGAGCGATTGACAGCGTAGAATGAAGG
DNA 2: CCTTCATTCTACGCTGTCAATCGCTCCAAATGCTATGACCTGTCAGTGACCCGTAAGGGC
B21: NRC3_wobSeed133_DR5_A8G_o1 (dsDNA)
DNA 1: GCCGTCCGAGGTCAATGCTAGGTCAGTGAAAGCATTGCGATTGACAGCGTAGAATGAAGG
DNA 2: CCTTCATTCTACGCTGTCAATCGCAATGCTTTCACTGACCTAGCATTGACCTCGGACGGC
B22: NRC3_wobSeed50_DR2_C25A_o1 (dsDNA)
DNA 1: GCCCTAGTTGGTCAGGAGGTCACAAACCGGATATGAGCGATTGACAGCGTAGAATGAAGG
DNA 2: CCTTCATTCTACGCTGTCAATCGCTCATATCCGGTTTGTGACCTCCTGACCAACTAGGGC
B23: NRC3_wobSeed98_DR4_G7A_o1 (dsDNA)
DNA 1: GCACTAATTGGTCAGCTGAGGTCACACACAATTCGGGCGATTGACAGCGTAGAATGAAGG
DNA 2: CCTTCATTCTACGCTGTCAATCGCCCGAATTGTGTGTGACCTCAGCTGACCAATTAGTGC
B24: NRC3_wobSeed136_DR5_C23G_o1 (dsDNA)
DNA 1: GCTAGCCTAGGTCATTCAGGGGGCAGTATAGAAAGCGCGATTGACAGCGTAGAATGAAGG
DNA 2: CCTTCATTCTACGCTGTCAATCGCGCTTTCTATACTGCCCCCTGAATGACCTAGGCTAGC
B25: NRC3_wobSeed136_DR5_T8A_o1 (dsDNA)
DNA 1: B24 DNA 1 with T8A, G23C
DNA 2: B24 DNA 2 with C38G, A53T
B26: NRC3_wobSeed46_DR1_A8G_o1 (dsDNA)
DNA 1: GCTTACCGAGGTGAAAGGTCGTTGATGCACGCCTTGGCGATTGACAGCGTAGAATGAAGG
DNA 2: CCTTCATTCTACGCTGTCAATCGCCAAGGCGTGCATCAACGACCTTTCACCTCGGTAAGC
B27: NRC3_wobSeed34_DR1_T4G_o1 (dsDNA)
DNA 1: GCAGCGAAAGGTCGAAGGTGAGTATACCCACCCGAAGCGATTGACAGCGTAGAATGAAGG
DNA 2: CCTTCATTCTACGCTGTCAATCGCTTCGGGTGGGTATACTCACCTTCGACCTTTCGCTGC
B28: NRC3_wobSeed99_DR4_A26T_o1 (dsDNA)
DNA 1: GCTCTCGGAGGACACGAAAGGTCAGTGCTCGACATCGCGATTGACAGCGTAGAATGAAGG
DNA 2: CCTTCATTCTACGCTGTCAATCGCGATGTCGAGCACTGACCTTTCGTGTCCTCCGAGAGC
B29: NRC3_wobSeed25_DR1_G24C_o1 (dsDNA)
DNA 1: GCCAAACTAGGTCAAAGGTCAAACTCGAGCCAACCAGCGATTGACAGCGTAGAATGAAGG
DNA 2: CCTTCATTCTACGCTGTCAATCGCTGGTTGGCTCGAGTTTGACCTTTGACCTAGTTTGGC
B30: NRC3_wobSeed61_DR2_G15C_o1 (dsDNA)
DNA 1: GCCGTCCAAGGTCACCAGGTCAGTGAAAGCGACGTGGCGATTGACAGCGTAGAATGAAGG
DNA 2: CCTTCATTCTACGCTGTCAATCGCCACGTCGCTTTCACTGACCTGGTGACCTTGGACGGC

Numbering of substitutions follows the chain as printed.

PPARa:RXRa, sequence (Q07869 whole entry, chain 1 of 2): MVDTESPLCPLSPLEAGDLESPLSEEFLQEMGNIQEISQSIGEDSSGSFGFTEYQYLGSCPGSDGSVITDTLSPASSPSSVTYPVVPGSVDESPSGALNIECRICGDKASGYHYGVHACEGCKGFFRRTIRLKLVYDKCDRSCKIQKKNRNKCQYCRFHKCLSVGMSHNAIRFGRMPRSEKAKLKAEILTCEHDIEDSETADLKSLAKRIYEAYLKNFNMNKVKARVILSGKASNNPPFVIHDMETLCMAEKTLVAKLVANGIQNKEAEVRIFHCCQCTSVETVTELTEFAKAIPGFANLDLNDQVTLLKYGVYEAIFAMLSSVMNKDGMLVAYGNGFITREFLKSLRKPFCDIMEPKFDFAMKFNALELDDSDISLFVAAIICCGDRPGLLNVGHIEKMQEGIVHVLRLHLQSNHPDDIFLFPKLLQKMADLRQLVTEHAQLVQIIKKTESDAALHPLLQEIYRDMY
PPARa:RXRa, sequence (P19793 whole entry, chain 2 of 2): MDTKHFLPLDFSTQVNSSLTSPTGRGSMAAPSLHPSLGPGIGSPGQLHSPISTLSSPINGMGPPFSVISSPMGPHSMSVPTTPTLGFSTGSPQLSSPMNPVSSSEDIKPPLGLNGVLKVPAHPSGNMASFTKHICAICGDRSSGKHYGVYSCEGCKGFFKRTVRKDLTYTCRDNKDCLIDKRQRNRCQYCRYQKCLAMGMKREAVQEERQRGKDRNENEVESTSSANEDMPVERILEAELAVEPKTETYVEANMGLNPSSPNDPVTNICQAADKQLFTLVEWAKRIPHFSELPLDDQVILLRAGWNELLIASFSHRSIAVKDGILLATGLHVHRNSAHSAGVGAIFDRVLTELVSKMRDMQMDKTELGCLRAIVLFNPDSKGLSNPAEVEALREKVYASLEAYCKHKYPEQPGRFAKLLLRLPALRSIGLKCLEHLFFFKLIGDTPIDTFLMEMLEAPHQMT
RARg:RXRa, sequence (P13631 whole entry, chain 1 of 2): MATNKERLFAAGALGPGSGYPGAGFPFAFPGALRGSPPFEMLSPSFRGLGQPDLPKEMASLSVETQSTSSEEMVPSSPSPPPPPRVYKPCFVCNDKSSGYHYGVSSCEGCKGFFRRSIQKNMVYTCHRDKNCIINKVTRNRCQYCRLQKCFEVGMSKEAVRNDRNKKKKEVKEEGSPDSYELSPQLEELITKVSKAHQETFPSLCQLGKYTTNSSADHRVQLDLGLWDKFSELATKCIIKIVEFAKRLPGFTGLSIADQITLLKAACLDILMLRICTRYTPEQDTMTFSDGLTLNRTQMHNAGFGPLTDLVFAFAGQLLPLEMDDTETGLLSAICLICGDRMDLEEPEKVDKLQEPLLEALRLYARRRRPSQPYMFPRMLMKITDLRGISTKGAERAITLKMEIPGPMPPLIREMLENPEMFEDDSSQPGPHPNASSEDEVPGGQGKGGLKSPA
RARg:RXRa, sequence (P19793 whole entry, chain 2 of 2): as the sequence (P19793 whole entry, chain 2 of 2) above

The target of one data set is PPARa:RXRa (Homo sapiens, UniProt Q07869;P19793 full;full). The data set is described as follows: no ligand; PBM; 270 nM : 90 nM RXRa; PBS pH 7.4, 2% milk, 0.02% Triton X-100, 1 mM DTT, BSA, 0.4 mg/ml salmon testes DNA. The note with it: tags: GST kept;His cleaved; copies: 1;1; label: surface-attached array probe. The method in brief:
(§1)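 Random background probes are the reference for binding z-scores. These scores derive from regression-normalized fluorescence on custom Agilent 4×180K protein-binding microarrays incubated 1 h with ligand-free nuclear receptor dimers. Binding was detected with antibodies against each partner (one per run).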
For the molecule B1, the binding signal is -0.72 PBM z-score against 500 random probes.

Turning to B2, the binding signal is -0.42 PBM z-score against 500 random probes. Still for that read-out and setting: next, B3: -0.47 PBM z-score against 500 random probes. For the molecule B4, the binding signal is -0.67 PBM z-score against 500 random probes. In the case of B5, the binding signal was -0.61 PBM z-score against 500 random probes. For B6, the binding signal is -1.24 PBM z-score against 500 random probes. Still for that read-out and setting: the result for B7 reads -1.18 PBM z-score against 500 random probes; that for B8, -0.37 PBM z-score against 500 random probes.

The target of a further data set is RARg:RXRa (Homo sapiens, UniProt P13631;P19793 full;full). Described as above. Conditions: tags: His kept;His cleaved; copies: 1;1; label: surface-attached array probe. The method in brief:
as §1
In the case of B9, the binding signal was 7.6 PBM z-score against 500 random probes. B10: the binding signal is 7.38 PBM z-score against 500 random probes. On the same count and under the same terms, next, B11: 7.99 PBM z-score against 500 random probes; B12: 7.66 PBM z-score against 500 random probes. Same read-out and setting: the result for B13 reads 4.58 PBM z-score against 500 random probes; that for B14, 8.94 PBM z-score against 500 random probes; that for B15, 8.44 PBM z-score against 500 random probes. For the molecule B16, the binding signal was 7.46 PBM z-score against 500 random probes. The same measure, in the same setting: next, B17: 4.47 PBM z-score against 500 random probes. Same read-out and setting: next, B18: 7.73 PBM z-score against 500 random probes.

In the case of B19, the binding signal is 7.69 PBM z-score against 500 random probes. Regarding B20, the binding signal is 7.68 PBM z-score against 500 random probes.

Consider B21, for which the binding signal is 8.1 PBM z-score against 500 random probes. On to B22, for which the binding signal was 4.55 PBM z-score against 500 random probes. Same read-out and setting: the result for B23 reads 4.44 PBM z-score against 500 random probes. Same read-out and setting: next, B24: 7.73 PBM z-score against 500 random probes. As to B25, the binding signal is 7.41 PBM z-score against 500 random probes. On to B26, for which the binding signal is 4.52 PBM z-score against 500 random probes. The same measure, in the same setting: the result for B27 reads 4.41 PBM z-score against 500 random probes; that for B28, 4.39 PBM z-score against 500 random probes.

For the molecule B29, the binding signal was 9.32 PBM z-score against 500 random probes.

On to B30, for which the binding signal was 7.32 PBM z-score against 500 random probes.
